Patent publication US20250144141A1

How the values were obtained:
[1] = target: HLA-A*02:01/MAGE-A4 complex (human) (UniProt P04439); experiment: SPR (Biacore T200), pMHC on streptavidin chip, 1:1 Langmuir fit
[2] = target: HLA-A*02:01/MAGE-A4 complex (human) (UniProt P04439); experiment: SPR

B1: M1302 (bispecific antibody, from a related filing, V domains shown)
VH: EVQLLESGGGSVQPGGSLRLSCTVSGFSLSNYAMSWVRQAPGKGLEWIGIVSSGGTTYYASWAKGRFTISKDTSKNTVYLQMNSLRAEDTASYYCAKDLYYGPNTDYSAANLWGQGTSVTVSS
VL: SYELTQPPSVSVSPGQTASITCTADTLSRSYASWYQQKPGQSPVLVIYRDTSRPSGIPERFSGSNSGNTATLTISGTQAMDEADYYCATRPSSGSNFQLFGGGTKLTVL
B1 showed a Kd [1] of 0.6 nM and a Kd [2] of 0.6 nM.

B2: M1041 (bispecific antibody, from a related filing, V domains shown)
VH: ESQVLESGGGSVQPGGSLRLSCTVSGFSLSNYAMSWVRQAPGKGLEYIGIVSSGGTTYYASWAKGRFTISKDTSKNTVYLQMNSLRAEDTASYYCAKDLYYGPTTYSAFNLWGQGTSVTVSS
VL: SYELTQPPSVSVSPGQTASITCTADTLSRSYASWYQQKPGQSPVLVIYRDTSRPSGIPERFSGSNSGNTATLTISGTQAMDEADYYCATRPSSGSNFQLFGGGTKLTVL
B2 gave a Kd [1] of 0.24 nM and a Kd [2] of 0.25 nM.
